Experimental data taken from the supplement of paper PMC5998384.

Columns and labels:
HeLa Kyoto [1] = assay: solubility change mitosis vs G1/S (difference of NP-40 vs SDS log2 ratios) (log2 ratio difference); higher = more soluble in mitosis
HeLa Kyoto [2] = assay: solubility in G1/S (NP-40 vs SDS abundance) (log2 ratio); higher = more soluble; settings: cell cycle stage: G1/S
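Wherever solubility change mitosis vs G1/S (difference of NP-40 vs SDS log2 ratios) is given: synchronized HeLa Kyoto cells (double thymidine block for G1/S, nocodazole release for mitosis), protein amounts in NP-40 versus SDS lysates quantified by mass spectrometry, three biological replicates.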
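Wherever solubility in G1/S (NP-40 vs SDS abundance) is given: HeLa Kyoto cells arrested at G1/S by double thymidine block, proteins quantified by TMT10plex mass spectrometry in mild NP-40 versus SDS extracts, three biological replicates.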

Substance | solubility change mitosis (log2) (HeLa Kyoto [1]) | solubility in G1/S (log2) (HeLa Kyoto [2])
MSRRPCSCALRPPRCSCSASPSAVTAAGRPRPSDSCKEESSTLSVKMKCDFNCNHVHSGLKLVKPDDIGRLVSYTPAYLEGSCKDCIKDYERLSCIGSPIVSPRIVQLETESKRLHNKENQHVQQTLNSTNEIEALETSRLYEDSGYSSFSLQSGLSEHEEGSLLEENFGDSLQSCLLQIQSPDQYPNKNLLPVLHFEKVVCSTLKKNAKRNPKVDREMLKEIIARGNFRLQNIIGRKMGLECVDILSELFRRGLRHVLATILAQLSDMDLINVSKVSTTWKKILEDDKGAFQLYSKAIQRVTENNNKFSPHASTREYVMFRTPLASVQKSAAQTSLKKDAQTKLSNQGDQKGSTYSRHNEFSEVAKTLKKNESLKACIRCNSPAKYDCYLQRATCKREGCGFDYCTKCLCNYHTTKDCSDGKLLKASCKIGPLPGTKKSKKNLRRL [FBXO5] | 0.249 | 0.273
MEVEDSGGVVLTAYHSYARAQPPNAESRCAPRAAASHPLSRKSIPRCRRINRMLSNESLHPPAFSRSNSEASVDSASMEDFWREIESIKDSSMGGQEEPPPAEVTPVDEGELEAEWLQDVGLSTLISGDEEEDGKALLSTLTRTQAAAVQKRYHTYTQTMRKKDKQSIRDVRDIFGVSESPPRDTCGNHTNQLDGTKEERELPRVIKTSGSMPDDASLNSTTLSDASQDKEGSFAVPRSDSVAILETIPVLPVHSNGSPEPGQPVQNAISDDDFLEKNIPPEAEELSFEVSYSEMVTEALKRNKLKKSEIKKEDYVLTKFNVQKTRFGLTEAGDLSAEDMKKIRHLSLIELTAFFDAFGIQLKRNKTEKVKGRDNGIFGVPLTVLLDGDRKKDPGVKVPLVLQKFFEKVEESGLESEGIFRLSGCTAKVKQYREELDAKFNADKFKWDKMCHREAAVMLKAFFRELPTSLFPVEYIPAFISLMERGPHVKVQFQALHLMVMALPDANRDAAQALMTFFNKVIANESKNRMSLWNISTVMAPNLFFSRSKHSDYEELLLANTAAHIIRLMLKYQKILWKVPSFLITQVRRMNEATMLLKKQLPSVRKLLRRKTLERETASPKTSKVLQKSPSARRMSDVPEGVIRVHAPLLSKVSMAIQLNNQTKAKDILAKFQYENSHGSSECIKIQNQRLYEIGGNIGEHCLDPDAYILDVYRINPQAEWVIKPQQSS [ARHGAP28] | 0.00445 | 0.167
MAPGEVTITVRLIRSFEHRNFKPVVYHGVNLDQTVKEFIVFLKQDIPLRTNLPPPFRNYKYDALKIIHQAHKSKTNELVLSLEDDERLLLKEDSTLKAAGIASETEIAFFCEEDYKNYKANPISSW [C2ORF76] | 0.0795 | -0.239
MVRKLKFHEQKLLKQVDFLNWEVTDHNLHELRVLRRYRLQRREDYTRYNQLSRAVRELARRLRDLPERDQFRVRASAALLDKLYALGLVPTRGSLELCDFVTASSFCRRRLPTVLLKLRMAQHLQAAVAFVEQGHVRVGPDVVTDPAFLVTRSMEDFVTWVDSSKIKRHVLEYNEERDDFDLEA [IMP3] | 1.1 | -2.11
MSGGGTETPVGCEAAPGGGSKKRDSLGTAGSAHLIIKDLGEIHSRLLDHRPVIQGETRYFVKEFEEKRGLREMRVLENLKNMIHETNEHTLPKCRDTMRDSLSQVLQRLQAANDSVCRLQQREQERKKIHSDHLVASEKQHMLQWDNFMKEQPNKRAEVDEEHRKAMERLKEQYAEMEKDLAKFSTF [BLOC1S5] | -0.0624 | 0.438
MSQGPPTGESSEPEAKVLHTKRLYRAVVEAVHRLDLILCNKTAYQEVFKPENISLRNKLRELCVKLMFLHPVDYGRKAEELLWRKVYYEVIQLIKTNKKHIHSRSTLECAYRTHLVAGIGFYQHLLLYIQSHYQLELQCCIDWTHVTDPLIGCKKPVSASGKEMDWAQMACHRCLVYLGDLSRYQNELAGVDTELLAERFYYQALSVAPQIGMPFNQLGTLAGSKYYNVEAMYCYLRCIQSEVSFEGAYGNLKRLYDKAAKMYHQLKKCETRKLSPGKKRCKDIKRLLVNFMYLQSLLQPKSSSVDSELTSLCQSVLEDFNLCLFYLPSSPNLSLASEDEEEYESGYAFLPDLLIFQMVIICLMCVHSLERAGSKQYSAAIAFTLALFSHLVNHVNIRLQAELEEGENPVPAFQSDGTDEPESKEPVEKEEEPDPEPPPVTPQVGEGRKSRKFSRLSCLRRRRHPPKVGDDSDLSEGFESDSSHDSARASEGSDSGSDKSLEGGGTAFDAETDSEMNSQESRSDLEDMEEEEGTRSPTLEPPRGRSEAPDSLNGPLGPSEASIASNLQAMSTQMFQTKRCFRLAPTFSNLLLQPTTNPHTSASHRPCVNGDVDKPSEPASEEGSESEGSESSGRSCRNERSIQEKLQVLMAEGLLPAVKVFLDWLRTNPDLIIVCAQSSQSLWNRLSVLLNLLPAAGELQESGLALCPEVQDLLEGCELPDLPSSLLLPEDMALRNLPPLRAAHRRFNFDTDRPLLSTLEESVVRICCIRSFGHFIARLQGSILQFNPEVGIFVSIAQSEQESLLQQAQAQFRMAQEEARRNRLMRDMAQLRLQLEVSQLEGSLQQPKAQSAMSPYLVPDTQALCHHLPVIRQLATSGRFIVIIPRTVIDGLDLLKKEHPGARDGIRYLEAEFKKGNRYIRCQKEVGKSFERHKLKRQDADAWTLYKILDSCKQLTLAQGAGEEDPSGMVTIITGLPLDNPSVLSGPMQAALQAAAHASVDIKNVLDFYKQWKEIG [SMG5] | -0.207 | -0.176
MSSRLGAVPATSGPTTFKQQRSTRIVGAKNSRTQCSIKDNSFQYTIPHDDSLSGSSSASSCEPVSDFPASFRKSTYWMKMRRIKPAATSHVEGSGGVSAKGKRKPRQEEDEDYREFPQKKHKLYGRKQRPKTQPNPKSQARRIRKEPPVYAAGSLEEQWYLEIVDKGSVSCPTCQAVGRKTIEGLKKHMENCKQEMFTCHHCGKQLRSLAGMKYHVMANHNSLPILKAGDEIDEPSERERLRTVLKRLGKLRCMRESCSSSFTSIMGYLYHVRKCGKGAAELEKMTLKCHHCGKPYRSKAGLAYHLRSEHGPISFFPESGQPECLKEMNLESKSGGRVQRRSAKIAVYHLQELASAELAKEWPKRKVLQDLVPDDRKLKYTRPGLPTFSQEVLHKWKTDIKKYHRIQCPNQGCEAVYSSVSGLKAHLGSCTLGNFVAGKYKCLLCQKEFVSESGVKYHINSVHAEDWFVVNPTTTKSFEKLMKIKQRQQEEEKRRQQHRSRRSLRRRQQPGIELPETELSLRVGKDQRRNNEELVVSASCKEPEQEPVPAQFQKVKPPKTNHKRGRK [ZNF512] | 1.4 | -2.03
MDFREILMIASKGQGVNNVPKRYSLAVGPPKKDPKVKGVQSAAVQAFLKRKEEELRRKALEEKRRKEELVKKRIELKHDKKARAMAKRTKDNFHGYNGIPIEEKSKKRQATESHTSQGTDREYEMEEENEFLEYNHAESEQEYEEEQEPPKVESKPKVPLKSAPPPMNFTDLLRLAEKKQFEPVEIKVVKKSEERPMTAEELREREFLERKHRRKKLETDGKLPPTVSKKAPSQKESVGTKLSKGSGDRHPSSKGMPLPHAEKKSRPSMANEKHLALSSSKSMPGERIKAGSGNSSQPSLREGHDKPVFNGAGKPHSSTSSPSVPKTSASRTQKSAVEHKAKKSLSHPSHSRPGPMVTPHNKAKSPGVRQPGSSSSSAPGQPSTGVARPTVSSGPVPRRQNGSSSSGPERSISGSKKPTNDSNPSRRTVSGTCGPGQPASSSGGPGRPISGSVSSARPLGSSRGPGRPVSSPHELRRPVSGLGPPGRSVSGPGRSISGSIPAGRTVSNSVPGRPVSSLGPGQTVSSSGPTIKPKCTVVSETISSKNIISRSSNGQMNGMKPPLSGYRAAQGPQRLPFPTGYKRQREYEEEDDDDDEYDSEMEDFIEDEGEPQEEISKHIREIFGYDRKKYKDESDYALRYMESSWKEQQKEEAKSLRLGMQEDLEEMRREEEEMQRRRAKKLKRR [SPTY2D1] | 0.873 | -1.47
MEEPEEPADSGQSLVPVYIYSPEYVSMCDSLAKIPKRASMVHSLIEAYALHKQMRIVKPKVASMEEMATFHTDAYLQHLQKVSQEGDDDHPDSIEYGLGYDCPATEGIFDYAAAIGGATITAAQCLIDGMCKVAINWSGGWHHAKKDEASGFCYLNDAVLGILRLRRKFERILYVDLDLHHGDGVEDAFSFTSKVMTVSLHKFSPGFFPGTGDVSDVGLGKGRYYSVNVPIQDGIQDEKYYQICESVLKEVYQAFNPKAVVLQLGADTIAGDPMCSFNMTPVGIGKCLKYILQWQLATLILGGGGYNLANTARCWTYLTGVILGKTLSSEIPDHEFFTAYGPDYVLEITPSCRPDRNEPHRIQQILNYIKGNLKHVV [HDAC8] | -0.213 | 0.168
ALAS1 | 0.00951 | 0.132
MRTEAEAAGPPLEPGDFVQLPVPVIQQLYHWDCGLACSRMVLRYLGQLDDSEFERALQKLQLTRSIWTIDLAYLMHHFGVRHRFCTQTLGVDKGYKNQSFYRKHFDTEETRVNQLFAQAKACKVLVEKCTVSVKDIQAHLAQGHVAIVLVNSGVLHCDLCSSPVKYCCFTPSGHHCFCRTPDYQGHFIVLRGYNRATGCIFYNNPAYADPGMCSTSISNFEEARTSYGTDEDILFVYLDS [GUCD1] | -0.00182 | -0.455
MWRGRAGALLRVWGFWPTGVPRRRPLSCDAASQAGSNYPRCWNCGGPWGPGREDRFFCPQCRALQAPDPTRDYFSLMDCNRSFRVDTAKLQHRYQQLQRLVHPDFFSQRSQTEKDFSEKHSTLVNDAYKTLLAPLSRGLYLLKLHGIEIPERTDYEMDRQFLIEIMEINEKLAEAESEAAMKEIESIVKAKQKEFTDNVSSAFEQDDFEEAKEILTKMRYFSNIEEKIKLKKIPL [HSCB] | 0.307 | 0.296
MVRDSMAAAFRPSNRVLLQALQILVYPGVGGSGSVSCRCPLGAKRYLLTDNVVKLKEFQQKKVAVACNLSGTKETYFRNLKKKLTQNKLILKGELITLLHLCESRDHVELAKNVIYRYHAENKNFTLGEYKFGPLFVRLCYELDLEESAVELMKDQHLRGFFSDSTSFNILMDMLFIKGKYKSALQVLIEMKNQDVKFTKDTYVLAFAICYKLNSPESFKICTTLREEALLKGEILSRRASCFAVALALNQNEMAKAVSIFSQIMNPESIACINLNIIIHIQSNMLENLIKTLKNAAEGNLSKFVKRHVFSEEVLAKVREKVKDVPALVAKFDEIYGTLHITGQVTTDSLDAVLCHTPRDRKSHTLLLNKRMVSRRTFQPLSQSLLAE [PTCD2] | 0.106 | -0.0152
MEKPRSIEETPSSEPMEEEEDDDLELFGGYDSFRSYNSSVGSESSSYLEESSEAENEDREAGELPTSPLHLLSPGTPRSLDGSGSEPAVCEMCGIVGTREAFFSKTKRFCSVSCSRSYSSNSKKASILARLQGKPPTKKAKVLHKAAWSAKIGAFLHSQGTGQLADGTPTGQDALVLGFDWGKFLKDHSYKAAPVSCFKHVPLYDQWEDVMKGMKVEVLNSDAVLPSRVYWIASVIQTAGYRVLLRYEGFENDASHDFWCNLGTVDVHPIGWCAINSKILVPPRTIHAKFTDWKGYLMKRLVGSRTLPVDFHIKMVESMKYPFRQGMRLEVVDKSQVSRTRMAVVDTVIGGRLRLLYEDGDSDDDFWCHMWSPLIHPVGWSRRVGHGIKMSERRSDMAHHPTFRKIYCDAVPYLFKKVRAVYTEGGWFEEGMKLEAIDPLNLGNICVATVCKVLLDGYLMICVDGGPSTDGLDWFCYHASSHAIFPATFCQKNDIELTPPKGYEAQTFNWENYLEKTKSKAAPSRLFNMDCPNHGFKVGMKLEAVDLMEPRLICVATVKRVVHRLLSIHFDGWDSEYDQWVDCESPDIYPVGWCELTGYQLQPPVAAEPATPLKAKEATKKKKKQFGKKRKRIPPTKTRPLRQGSKKPLLEDDPQGARKISSEPVPGEIIAVRVKEEHLDVASPDKASSPELPVSVENIKQETDD [L3MBTL2] | 0.0658 | -0.293
